Experiment [1] concerns the target T1, endogenous rat BDNF in plasma (rat, UniProt P23363 131-249, limits assumed).
T1 construct: also called endogenous BDNF
T1 sequence (looked up): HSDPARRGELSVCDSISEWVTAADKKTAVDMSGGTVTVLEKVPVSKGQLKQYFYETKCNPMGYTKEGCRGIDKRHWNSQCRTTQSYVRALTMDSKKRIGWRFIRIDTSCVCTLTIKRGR
Nature of the experiment: ligand-binding assay (Gyrolab) for total BDNF in plasma of dosed rats.
Method: Sample concentrations were determined by interpolation from a standard curve that was fitted using a 5-parameter logistic curve fit with 1/y² response weighting.

Experiment [2] deals with T2, human brain-derived neurotrophic factor (BDNF) (human, UniProt P23560 129-247).
T2 construct: In the HTRF assays the BDNF was biotinylated; also called hBDNF; human BDNF
T2 sequence: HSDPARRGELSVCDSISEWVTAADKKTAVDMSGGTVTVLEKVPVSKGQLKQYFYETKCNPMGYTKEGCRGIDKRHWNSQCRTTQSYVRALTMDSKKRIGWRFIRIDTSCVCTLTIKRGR
Nature of the experiment: SPR, Biacore T200; immobilised human BDNF; 37 C (same data as Table 10).
Method: (§1) All SPR experiments were performed at 37° C. and a data collection rate of 1 Hz with HBS-EP+ used as both the sample and running buffer. The resulting sensorgrams were double referenced with buffer injections and a non-derivatized flow cell surface. Rate constants were determined by applying a 1:1 Langmuir binding model using the T200 evaluation software v1.0 and the equation KD=kd/kₐ.

Experiment [3] deals with T2, human brain-derived neurotrophic factor …. In words: SPR, Biacore T200; human BDNF amine-coupled to CM5, antibody injected; 1:1 Langmuir; 37 C.
Method: as §1
The dissociation phase for the highest concentration of antibody was extended to 4000 seconds to achieve a signal decay minimum of 5%. The kinetic rate constants were determined using a Langmuir 1:1 binding model and T200 evaluation software v1.0.
The target in experiment [4] is T3, p75NTR receptor (immobilised on the SPR flow cell) (Homo sapiens (Human), UniProt P08138 29-250).
T3 construct: also called p75 neurotrophic receptor; LNGFR
T3 sequence: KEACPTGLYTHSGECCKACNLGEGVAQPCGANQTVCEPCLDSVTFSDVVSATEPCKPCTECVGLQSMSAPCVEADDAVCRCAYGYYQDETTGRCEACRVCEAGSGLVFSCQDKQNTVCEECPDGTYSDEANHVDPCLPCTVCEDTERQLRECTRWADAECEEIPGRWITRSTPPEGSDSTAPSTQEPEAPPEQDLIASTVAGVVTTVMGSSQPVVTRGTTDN
In words: ELISA (Example 7): plate coated with 1 µg/ml of the antigen, antibody at the highest concentration of the titration, anti-IgG-HRP, TMB.
Method: (§2) NUNC plates were coated with 1 μg/ml of a neurotrophin or chemokine in 1×PBS overnight. […] Plates were washed and a 1/5000 dilution of anti-IgG-HRP (horse radish peroxidase) in blocking buffer was added for 1 h (100 μL total volume). Plates were washed and developed by addition of 3,3′,5,5′-Tetramethylbenzidine (TMB) substrate and subsequently stopped with phosphoric acid.

In experiment [5] the target is T4, recombinant human neurotrophin-3 (human, UniProt P20783 139-257).
T4 construct: also called NT3; NT-3
T4 sequence (looked up): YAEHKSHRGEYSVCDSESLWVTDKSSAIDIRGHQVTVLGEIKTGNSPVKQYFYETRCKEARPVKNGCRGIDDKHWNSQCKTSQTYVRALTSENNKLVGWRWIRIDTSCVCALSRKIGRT
Described as above.
Method: as §2

Experiment [6] concerns the target T5, recombinant human neurotrophin-4 (human, UniProt P34130 81-210).
T5 construct: also called NT4; NT-4
T5 sequence (looked up): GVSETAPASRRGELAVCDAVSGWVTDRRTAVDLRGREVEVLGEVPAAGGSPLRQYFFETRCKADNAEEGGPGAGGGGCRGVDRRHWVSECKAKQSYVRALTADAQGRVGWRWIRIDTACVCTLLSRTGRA
The description is as above.
Method: as §2

Experiment [7] deals with T6, recombinant human beta-NGF (human, UniProt P01138 122-241).
T6 construct: also called β-NGF; Nerve Growth Factor
T6 sequence (P01138 122-241 limits assumed): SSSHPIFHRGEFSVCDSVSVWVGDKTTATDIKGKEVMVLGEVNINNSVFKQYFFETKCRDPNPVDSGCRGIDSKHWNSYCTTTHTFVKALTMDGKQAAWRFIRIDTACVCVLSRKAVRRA
The experiment is described as above.
Method: as §2

Experiment [8] addresses T7, recombinant human CXCL9 (human, UniProt Q07325 23-125).
T7 sequence (looked up): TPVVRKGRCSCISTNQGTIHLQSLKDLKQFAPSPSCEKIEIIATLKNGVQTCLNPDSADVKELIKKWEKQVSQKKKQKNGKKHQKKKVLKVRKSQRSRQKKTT
Described as above.
Method: as §2

For experiment [9], the target named is T8, recombinant human CXCL10 (human, UniProt P02778 22-98).
T8 sequence (looked up): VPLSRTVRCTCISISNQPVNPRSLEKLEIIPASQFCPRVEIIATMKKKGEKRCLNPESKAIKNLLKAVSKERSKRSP
The experiment is described as above.
Method: as §2

Experiment [10] addresses T9, recombinant human CXCL13 (human, UniProt O43927 23-109).
T9 sequence (looked up): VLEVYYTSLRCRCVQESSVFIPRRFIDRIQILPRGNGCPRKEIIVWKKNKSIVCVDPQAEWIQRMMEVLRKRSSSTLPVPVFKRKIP
The description is as above.
Method: as §2

The target of experiment [11] is T2, human brain-derived neurotrophic factor …. Nature of the experiment: cell-based or functional assay.
Experiment [12] shares this target. In words: SPR, Biacore T200; immobilised human BDNF; 37 C.
Method: as §1
Experiment [13] addresses T3, p75NTR receptor (immobilised on the SPR …). In words: ELISA (Example 14, conditions of Example 7): plate coated with 1 µg/ml of the antigen, antibody at the highest concentration of the titration, anti-IgG-HRP, TMB.
Experiment [14] has as its target T4, recombinant human neurotrophin-3. Described as above.
For experiment [15], the target named is T5, recombinant human neurotrophin-4. The experiment is described as above.
The target in experiment [16] is T6, recombinant human beta-NGF. The experiment is described as above.
For the next experiment, the target named is T10, recombinant CXCL3 (Homo sapiens (Human), UniProt P19876 35-107).
T10 sequence: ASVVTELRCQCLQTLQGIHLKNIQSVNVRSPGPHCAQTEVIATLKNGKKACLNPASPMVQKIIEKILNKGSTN
The description is as above.

Experiment [17] addresses T7, recombinant human CXCL9. The experiment is described as above.
Experiment [18] has as its target T8, recombinant human CXCL10. The description is as above.
The target in experiment [19] is T9, recombinant human CXCL13. The experiment is described as above.
Experiment [20] has as its target T2, human brain-derived neurotrophic factor …. Nature of the experiment: competition HTRF (Example 12): 1 nM biotinylated human BDNF, europium cryptate labelled H1, SA-XL665, unlabelled antibody titrated; competitor: labelled H1; x axis is log10 of pM by the text.
Method: Reagents were added sequentially on the MiniTrak Liquid Handling Platform (Perkin-Elmer) into 384-well low volume black plates (Nunc).

From patent publication US20160207991A1 (Pfizer, published 2016) come the findings set out here.

B1: anti-BDNF antibody R3BH1 (chicken-human chimeric IgG) (antibody, V domains shown)
VH: AVTLDESGGGLQTPGGGLSLVCKASGFDFSSYDMHWVRQAPGKGLEWVAGIDDGGSDTYYGSAVKGRATISRDNGQSTVRLQLNNLRAEDTGTYYCAKSSYDISWNGHVENIDAWGHGTEVIVSS
VL: ALTQPTSVSTNLGGTVEITCSGAGSGYGYGWFQQKSPGSAPVTVIYSNDKRPSDIPSRFSGSKSGSTGTLTITGVQAEDEAVYFCGTYDSTDAGYAIFGAGTTLTVL
notes: also called R3BH1 IgG; chimeric R3BH1
B1: the binding result in experiment [1] is “binds”; in experiment [4] it was “no binding (tested: 300 µg/mL)”; in experiment [5], “no binding (tested: 300 µg/mL)”; in experiment [6], “no binding (tested: 300 µg/mL)”; in experiment [7], “no binding (tested: 300 µg/mL)”; with recombinant human CXCL9 [8], “no binding (tested: 300 µg/mL)”. Further, the binding result in the experiment with recombinant human CXCL10 [9] and with recombinant human CXCL13 [10] was “no binding (tested: 300 µg/mL)” each time. Further, the Kd in [2] and in experiment [3] was 34.4 nM in each case. In addition, the “T1/2” value in experiment [2] and in [3] was 1.13 min each time. Further, the koff in experiment [2] and in experiment [3] was 0.0103 s⁻¹ each time. Also, the figures for the kon in [2] and in experiment [3] were 300000 M⁻¹ s⁻¹ and 303000 M⁻¹ s⁻¹, respectively.

B2: humanised affinity matured anti-BDNF antibody B30 (antibody, V domains shown)
VH: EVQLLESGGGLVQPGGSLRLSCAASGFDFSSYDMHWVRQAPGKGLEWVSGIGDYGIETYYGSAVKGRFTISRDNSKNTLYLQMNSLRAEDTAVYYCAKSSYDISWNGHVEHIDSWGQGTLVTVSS
VL: SSELTQPPAVSVALGQTVRITCSGAGSGYGYGWYQQKPGQAPVTVIYSNDKRPSGIPDRFSGSSSGNTASLTITGAQAEDEADYYCGTYVSAYYGYAIFGGGTKLTVL
B2: in [11], the “PathHunter pTrkB assay in U2OS TrkB/p75NTR cells, 300 pM BDNF” value (from here on “PathHunter pTrkB assay”) is 0.54 nM. For the same molecule, the “pERK assay in U2OS TrkB/p75NTR cells, 150 pM BDNF” value (“pERK assay” for short) in experiment [11] amounted to 1.3 nM. The molecule further returned a Kd in experiment [12] of 0.12 nM. For the same molecule, the “T1/2” value in experiment [12] turned out to be 5.58 h. The molecule further had a koff in experiment [12] of 3.5e-05 s⁻¹. Also, in experiment [12], the kon is 290000 M⁻¹ s⁻¹. The binding result is given as “binds” in experiment [1]; “no binding (tested: 300 µg/mL)” in [13]; “no binding (tested: 300 µg/mL)” in [14]; “no binding (tested: 300 µg/mL)” in experiment [15]; “no binding (tested: 300 µg/mL)” in experiment [16]; “no binding (tested: 300 µg/mL)” in the experiment with recombinant CXCL3. The binding result with recombinant human CXCL9 [17], with recombinant human CXCL10 [18] and with recombinant human CXCL13 [19] was “no binding (tested: 300 µg/mL)” each time. In experiment [20], the “IC50 (read off the curve)” value was approximately 1 nM.

B3: humanised affinity-optimized anti-BDNF antibody B18 (antibody, V domains shown)
VH: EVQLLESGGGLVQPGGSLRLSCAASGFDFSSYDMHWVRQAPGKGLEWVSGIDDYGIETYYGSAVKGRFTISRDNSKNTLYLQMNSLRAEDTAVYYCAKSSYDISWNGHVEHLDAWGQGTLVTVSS
VL: SSELTQPPAVSVALGQTVRITCQGDSSGYGYGWYQQKPGQAPVTVIYGKNNRPSGIPDRFSGSSSGNTASLTITGAQAEDEADYYCGTYVSAYYGYAIFGGGTKLTVL
Consider B3, for which the “PathHunter pTrkB assay” value in [11] came out at 0.29 nM. The “pERK assay” value in experiment [11] came to 0.95 nM. The same molecule gave a Kd in experiment [12] of 0.0994 nM. Also, the “T1/2” value in experiment [12] worked out at 7.03 h. Moreover, the koff in experiment [12] came to 2.8e-05 s⁻¹. The same molecule registered a kon in experiment [12] of 290000 M⁻¹ s⁻¹. For the same molecule, the binding result (in experiment [13]; in experiment [14]; in [15]; in experiment [16]; with recombinant CXCL3; in the experiment with recombinant human CXCL9 [17]) was “no binding (tested: 300 µg/mL)” throughout. Also, the binding result with recombinant human CXCL10 [18] and in the experiment with recombinant human CXCL13 [19] was “no binding (tested: 300 µg/mL)” throughout. Moreover, the “IC50 (read off the curve)” value in experiment [20] is approximately 0.6 nM.

B4: humanised affinity-optimized anti-BDNF antibody B20 (antibody, V domains shown)
VH: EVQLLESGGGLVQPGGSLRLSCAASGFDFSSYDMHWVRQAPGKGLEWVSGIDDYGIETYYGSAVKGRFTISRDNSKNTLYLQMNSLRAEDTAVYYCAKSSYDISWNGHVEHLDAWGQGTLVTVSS
VL: SSELTQPPAVSVALGQTVRITCSGAGSGYGYGWYQQKPGQAPVTVIYSNDKRPSGIPDRFSGSSSGNTASLTITGAQAEDEADYYCGTYDSTDAGYAIFGGGTKLTVL
B4: the “PathHunter pTrkB assay” value in experiment [11] worked out at 0.31 nM. In experiment [11], the “pERK assay” value was found to be 1.1 nM. The Kd in experiment [12] amounted to 0.55 nM. Further, the “T1/2” value in [12] was determined as 1.26 h. Moreover, in [12], the off-rate constant (koff) was found to be 0.000154 s⁻¹. In addition, in experiment [12], the kon came out at 280000 M⁻¹ s⁻¹. Further, the binding result (in experiment [13]; in [14]; in experiment [15]; in experiment [16]; in the experiment with recombinant CXCL3; with recombinant human CXCL9 [17]) was “no binding (tested: 300 µg/mL)” in each case. Besides, the binding result in the experiment with recombinant human CXCL10 [18] and in the experiment with recombinant human CXCL13 [19] was “no binding (tested: 300 µg/mL)” throughout. Also, the “IC50 (read off the curve)” value in experiment [20] is approximately 1 nM.
